As a reminder, the EC50 is the concentration that produces a half-maximal response.

From patent US20240228562A1 (Pieris, published 2024) come the findings set out here.

For experiment [1], the target named is T1, recombinant human CTGF protein (R&D Systems, SEQ ID NO: 79) (human, UniProt P29279 27-349).
T1 construct: Bought; also called human CTGF/CNN2; huCTGF
T1 sequence: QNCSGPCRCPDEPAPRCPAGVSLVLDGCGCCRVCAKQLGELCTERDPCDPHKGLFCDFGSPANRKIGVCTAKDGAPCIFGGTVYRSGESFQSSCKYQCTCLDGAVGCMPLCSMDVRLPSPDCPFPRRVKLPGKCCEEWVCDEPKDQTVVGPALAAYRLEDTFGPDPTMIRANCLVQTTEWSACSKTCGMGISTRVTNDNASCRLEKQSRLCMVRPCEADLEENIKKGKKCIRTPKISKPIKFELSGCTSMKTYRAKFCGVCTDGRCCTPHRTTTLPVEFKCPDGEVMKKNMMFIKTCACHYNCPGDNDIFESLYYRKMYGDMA
Kind of experiment: HTRF, 1 nM biotinylated human CTGF. On the procedure:
Binding of some fusion proteins was tested by a Homogeneous Time Resolved Fluorescence (HTRF assay). In detail, 1 nM of biotinylated human CTGF (R&D Systems) was incubated for 1 h with a titration of some lipocalins starting at 5 nM in 384 Flat Bottom White Polystyrol microtiter plate (Greiner). Samples were diluted in PBS containing 0.1% Tween 20 and 2% BSA. As donor, Streptavidin-Terbium at a concentration of 0,006 μg/mL was used, the acceptor was 0.2 μg/mL anti-His-d2 (both CisBio). After another 1 h of incubation, the fluorescence intensity of the donor and acceptor on the plate was read using a fluorescence microplate reader M1000 (Tecan) with the standard settings recommended by CisBio. The calculated ratio of signals was used for the curve fitting performed in GraphPad Prism 7 software.

Experiment [2] deals with T1, recombinant human CTGF protein (R&D …). Kind of experiment: ELISA, coated human CTGF. As to the method:
Binding of fusion proteins was tested by an ELISA assay. In detail, a 384-well plate suitable for fluorescence measurements (Greiner FLUOTRAC™ 600, black flat bottom, high-binding) was coated with 20 μl of human CTGF (R&D Systems) at a concentration of 1 μg/ml in PBS over night at 4° C. After washing with PBS with 0.05% Tween 20, wells were blocked with 100 μl blocking buffer containing 0.1% Tween 20 and 2% BSA (PBS-T/BSA) for 1 h at room temperature. 20 μl of serially diluted muteins were incubated in PBS-T/BSA for 1 h at room temperature (RT).
The residual supernatants were discarded and 20 μl HRP-labeled anti-NGAL or anti-His-Tag antibody was added at a predetermined optimal concentration in PBS-T/BSA and incubated for 1 h at RT. After washing, 20 μl fluorogenic HRP substrate (QuantaBlu, Thermo) was added to each well, and the reaction was allowed to proceed for 2 to 60 minutes. The fluorescence intensity of every well on the plate was read using a fluorescence microplate reader (Tecan). Curve fitting was performed using GraphPad Prism 7 or 8 software.
A general note: In an ELISA, binding on a coated surface is turned into a signal by an enzyme label.

Residue numbers refer to the chain shown, from its start.

B1: fusion protein of SEQ ID NO: 69 (designed binder)
chain: QDSTSDLIPAPPLSKVPLQQNFQDNQFQGKWYVVGLAGNAILREDKQPAKMFATIYELKEDKSYDVTSVRFEAKSCSYTSKTFVPGSQPGEFTAGNIKSAPGQTSTLVRVVSTNYNQHAMVFFKHVSQNRETFVITLYGRTKELTSELKENFIRFSKSLGLPENHIVFPVPIDQCIDGGGGGSGGGGSGGGGSQDSTSDLIPAPPLSKVPLQQNFQDNQFQGKWYVVGLAGNYRLREDKDPSKMGATIYELKEDKSYDVTQVQFDDKKCLYVIETFVPGSQPGEFTLGAIKSYPGLTSQLVRVVSTNYNQHAMVFVKKVWPNLEYFQIVLYGRTKELTSELKENFIRFSKSLGLPENHIVFPVPIDQCIDG
notes: not shown: C-terminal His-tag
B1: in experiment [1], the half-maximal effective concentration (EC50) stood at 0.65 nM.

B2: fusion protein of SEQ ID NO: 75 (designed binder)
chain: B1 chain with S77K, S80I, N96Y, S127T, T132I
notes: not shown: C-terminal His-tag
Turning to B2, the EC50 in experiment [1] is 0.7 nM.

B3: fusion protein of SEQ ID NO: 72 (designed binder)
chain: B1 chain with Q47Y, A73N, S77V, S80I, A94T, T132F
notes: not shown: C-terminal His-tag
B3: in experiment [1], the EC50 was 0.68 nM.

B4: fusion protein of SEQ ID NO: 67 (designed binder)
chain: QDSTSDLIPAPPLSKVPLQQNFQDNQFHGKWYVVGLAGNKILRIDKQPAKMFATIYELKEDKSYDVTSVRFEARSCSYTIKTFVPGSQPGEFTAGNIKSAPGQTSTLVRVVSTNYNQHAMVFFKHVSQNRETFVITLYGRTKELTSELKENFIRFSKSLGLPENHIVFPVPIDQCIDGGGGGSGGGGSGGGGSQDSTSDLIPAPPLSKVPLQQNFQDNQFHGKWYVVGWAGNIKLREDKDPFKMSATIYELKEDKSYDVTEVVFEQKKCHYIIKTFVPGSQPGEFTLGDIKSPPGETSSLVRVVSTNYNQHAMVFFKKVFQNREFFWITLYGRTKELTSELKENFIRFSKSLGLPENHIVFPVPIDQCIDG
Consider B4, for which the EC50 in experiment [2] is 1 nM.

B5: fusion protein of SEQ ID NO: 65 (designed binder)
chain: QDSTSDLIPAPPLSKVPLQQNFQDNQFHGKWYVVGRAGNNRLREDKDPPKMWATIYELKEDKSYDVTHVHFMTKKCRYIIDTFVPGSQPGEFTLGAIKSGPGMTSPLVRIVSTNYNQHAMVFFKWVNQNREWFTITLYGRTKELTSELKENFIRFSKSLGLPENHIVFPVPIDQCIDGGGGGSGGGGSGGGGSQDSTSDLIPAPPLSKVPLQQNFQDNQFHGKWYVVGLAGNKILRIDKQPAKMFATIYELKEDKSYDVTSVRFEARSCSYTIKTFVPGSQPGEFTAGNIKSAPGQTSTLVRVVSTNYNQHAMVFFKHVSQNRETFVITLYGRTKELTSELKENFIRFSKSLGLPENHIVFPVPIDQCIDG
With B5, the EC50 in experiment [2] worked out at 0.61 nM.

B6: fusion protein of SEQ ID NO: 66 (designed binder)
chain: QDSTSDLIPAPPLSKVPLQQNFQDNQFHGKWYVVGLAGNKILRIDKQPAKMFATIYELKEDKSYDVTSVRFEARSCSYTIKTFVPGSQPGEFTAGNIKSAPGQTSTLVRVVSTNYNQHAMVFFKHVSQNRETFVITLYGRTKELTSELKENFIRFSKSLGLPENHIVFPVPIDQCIDGGGGGSGGGGSGGGGSQDSTSDLIPAPPLSKVPLQQNFQDNQFHGKWYVVGRAGNNRLREDKDPPKMWATIYELKEDKSYDVTHVHFMTKKCRYIIDTFVPGSQPGEFTLGAIKSGPGMTSPLVRIVSTNYNQHAMVFFKWVNQNREWFTITLYGRTKELTSELKENFIRFSKSLGLPENHIVFPVPIDQCIDG
B6: the EC50 in experiment [2] turned out to be 1.2 nM.

B7: fusion protein of SEQ ID NO: 70 (designed binder)
chain: QDSTSDLIPAPPLSKVPLQQNFQDNQFQGKWYVVGWAGNVKLREDKQPQKMSATIYELKEDKSYDVTEVVFEQKKCHYIIKTFVPGSQPGEFTAGDIKSPPGYTSSLVRVVSTNYNQHAMVFFKKVSQNREFFWITLYGRTKELTSELKENFIRFSKSLGLPENHIVFPVPIDQCIDGGGGGSGGGGSGGGGSQDSTSDLIPAPPLSKVPLQQNFQDNQFQGKWYVVGLAGNAILREDKQPAKMFATIYELKEDKSYDVTSVRFEAKSCKYTIKTFVPGSQPGEFTAGYIKSAPGQTSTLVRVVSTNYNQHAMVFFKHVTQNREIFVITLYGRTKELTSELKENFIRFSKSLGLPENHIVFPVPIDQCIDG
notes: not shown: C-terminal His-tag
In the case of B7, the EC50 in experiment [1] is 0.72 nM.
